Experimental findings from the supplement of paper PMC10567573 are described below.

± gives the standard deviation.

This series is described as follows: protein stability index of a GFP-peptide fusion (GPS, HEK-293T) (PSI 1-6); higher = more stable. Particulars: c terminus: a fixed tail appended.
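Further: 24-mer peptide tiles fused after GFP, lentivirally expressed, FACS-sorted into six equal bins by GFP/DsRed ratio, decoded by Illumina sequencing, PSI is the read-weighted mean bin number.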

Regarding TSEDLRLQCDAVNLAFGRRCEELE [TEKT4], the protein stability index stood at 4.51 ± 0.32 (treatment: DMSO) and 4.71 ± 0.29 (treatment: MLN4924 1 uM, 8 h).
The corresponding values for TSLSLAQVGAKGDTANEIGQVLHF [SERPINB5] are 3.06 ± 0.28 and 3.18 ± 0.37.
The corresponding values for TSRRPSGTGTGPEDGRPSLGSPYG [PDLIM4] are 4.67 ± 0.21 and 4.67 ± 0.2.
The corresponding values for TSSLAQPGAYYPYERTLGQYQYER [IRX6] are 3.25 ± 0.38 and 3.22 ± 0.21.
As to TSSSDDDEEVSGSSKTITAEIPDG [C18orf25], the protein stability index by setting is: (treatment: DMSO) 5.59 ± 0.19; (treatment: MLN4924 1 uM, 8 h) 5.49 ± 0.23.
As to TSVGMSFVAGGISGTVAAVLTLPF [SLC25A39], the protein stability index reads like this: (treatment: DMSO) 2.95 ± 0.77; (treatment: MLN4924 1 uM, 8 h) 2.54 ± 0.25.
The like results for TSYKVMVSNDSHTWVTVKNGSGDM [CPXM2] were, in that order, 2.8 ± 0.38 and 2.94 ± 0.27.
The like results for TSYRLQGLKPNSLYYFRLAARSPQ [PTPRD] were, in that order, 2.33 ± 0.52 and 2.42 ± 0.39.
TTFSTTSGYMEGYYTFHFLYFKDK [FBXO3]: the protein stability index came to 2.97 ± 0.74 (treatment: DMSO) and 2.41 ± 0.41 (treatment: MLN4924 1 uM, 8 h).
TVCDPARSCAIVEDDGLQSAFTAA [ADAMTS4]: the protein stability index is, setting by setting: (treatment: DMSO) 3.6 ± 0.85; (treatment: MLN4924 1 uM, 8 h) 4.16 ± 0.47.
Regarding TVGIYFGLVYRIHSVLQGFIPLFQ [TMEM40], the protein stability index amounted to 3.16 ± 0.58 (treatment: DMSO) and 3.16 ± 0.54 (treatment: MLN4924 1 uM, 8 h).
The like results for TWLTTPKSTWPRYSKPGLSMRLLE [TCF25] were, in that order, 2.41 ± 0.61 and 2.29 ± 0.31.
The corresponding values for TYRIENYTPDLPRADVDHAIEKAF [MMP1] are 3.4 ± 0.18 and 3.39 ± 0.31.
The like results for TYVAKMSEPHYGHAGTVYGGVMYI [KLHL13] were, in that order, 3.32 ± 0.82 and 2.52 ± 0.45.
For the sequence VAITVEVKQEEDIKPPPPLVLNSQ [RAD54B], the protein stability index amounted to 3 ± 0.26 (treatment: DMSO) and 2.98 ± 0.24 (treatment: MLN4924 1 uM, 8 h).
The like results for VAMDTEFPGVVARPIGEFRSNADY [CNOT7] were, in that order, 3.73 ± 0.38 and 3.78 ± 0.37.
The corresponding values for VAVNNIGRGPPSEPVLTQTSEQAP [PTPRD] are 4.78 ± 0.2 and 5.02 ± 0.49.
As for VCTKYNLRITSGVVVCQCGLSIPS [RPAIN], the protein stability index reads like this: (treatment: DMSO) 2.56 ± 0.5; (treatment: MLN4924 1 uM, 8 h) 2.45 ± 0.55.
The like results for VDDLKGSLKEDLTQHKFICEQCGK [SPRY1] were, in that order, 5.03 ± 0.3 and 4.88 ± 0.26.
As to VEAVAYAPKKELINIKGISEAKAD [RAD51], the protein stability index runs as follows: (treatment: DMSO) 4.49 ± 0.22; (treatment: MLN4924 1 uM, 8 h) 4.52 ± 0.41.
The like results for VELHYEEGSPRNLGTPTSSTPRPS [C2CD2L] were, in that order, 4.63 ± 0.48 and 4.48 ± 0.32.
The corresponding values for VENPSTASHSLSPSEHVQGKSPVN [ZNF649] are 5.26 ± 0.17 and 5.21 ± 0.29.
The like results for VERSKMIDRNLREDGEKAAREVKL [GNAI1] were, in that order, 4.93 ± 0.38 and 5.09 ± 0.062.
VEVDAPKSQDLAKIMADIRAQYDE [KRT18]: the protein stability index came to 4.76 ± 0.12 (treatment: DMSO) and 4.71 ± 0.17 (treatment: MLN4924 1 uM, 8 h).
The corresponding values for VGDILWEHLEILQKEDVKPYQVNG [ETS1] are 3.1 ± 0.27 and 3.05 ± 0.33.
In the case of VGEPEFHYIAGAHGNEVLGRELLL [CPXM2], the protein stability index runs as follows: (treatment: DMSO) 2.88 ± 0.62; (treatment: MLN4924 1 uM, 8 h) 3.25 ± 0.2.
Regarding VGERLQDTHSWKSELQREMEALAA [TEKT4], the protein stability index (treatment: DMSO) worked out at 3.9 ± 0.62 and the protein stability index (treatment: MLN4924 1 uM, 8 h) worked out at 3.92 ± 0.56.
The corresponding values for VGHARGLHAWQINWPARQRGTHAV [SPSB4] are 2.96 ± 0.43 and 2.87 ± 0.24.
The corresponding values for VHQLSKKEASRHAIMRSPQMVSAI [CTNNB1] are 3.06 ± 0.26 and 3.06 ± 0.22.
The corresponding values for VIDKETIDLLAFTSVAELELLGLE [SDE2] are 2.27 ± 0.52 and 2.73 ± 0.48.
On to VIDLFDEQGLSALHLAAQGRHAQT [RIPK4], for which the protein stability index turned out to be 3.05 ± 0.35 (treatment: DMSO) and 2.87 ± 0.14 (treatment: MLN4924 1 uM, 8 h).
The like results for VLAARSPVFNAMFEHEMEESKKNR [SPOPL] were, in that order, 3.73 ± 0.2 and 4.27 ± 0.29.
The corresponding values for VLASFILDDGEIDEIRWKYHSDTT [IQUB] are 2.5 ± 0.23 and 2.18 ± 0.3.
The like results for VLEDNIIVSEVQFVESSGGGSSAV [BRF1] were, in that order, 3.75 ± 0.21 and 3.89 ± 0.27.
Take VLFTSDACGLSDVAHVESLQEKSQ [NR2F2]: the protein stability index stood at 3.93 ± 0.26 (treatment: DMSO) and 4.04 ± 0.28 (treatment: MLN4924 1 uM, 8 h).
The corresponding values for VLIFKSILFLPCLRKKILKIRHGW [STEAP1] are 2.16 ± 0.51 and 2.38 ± 0.25.
